{"source": "patent US20160331662A1", "about": "(UAB RESEARCH FOUNDATION, published 2016)", "binders": {"B1": {"name": "iSRCR123 (receptor, not shown: small tags and cut ends)", "chain": "not shown", "notes": "domain: SRCR123; also called SRCRs; iSRCRs"}}, "key": {"[1]": {"biological_target": "the molecule itself", "experiment": "SPR, analyte over immobilized iSRCR123; quantity and unit not printed beside the number, told as 'nanomolar affinities'"}, "C123^AgI/II": {"biological_target": "T1, C123^AgI/II (Streptococcus mutans UA159, UniProt P23504 1000-1486)", "T1 construct": "domain: C123", "T1 sequence": "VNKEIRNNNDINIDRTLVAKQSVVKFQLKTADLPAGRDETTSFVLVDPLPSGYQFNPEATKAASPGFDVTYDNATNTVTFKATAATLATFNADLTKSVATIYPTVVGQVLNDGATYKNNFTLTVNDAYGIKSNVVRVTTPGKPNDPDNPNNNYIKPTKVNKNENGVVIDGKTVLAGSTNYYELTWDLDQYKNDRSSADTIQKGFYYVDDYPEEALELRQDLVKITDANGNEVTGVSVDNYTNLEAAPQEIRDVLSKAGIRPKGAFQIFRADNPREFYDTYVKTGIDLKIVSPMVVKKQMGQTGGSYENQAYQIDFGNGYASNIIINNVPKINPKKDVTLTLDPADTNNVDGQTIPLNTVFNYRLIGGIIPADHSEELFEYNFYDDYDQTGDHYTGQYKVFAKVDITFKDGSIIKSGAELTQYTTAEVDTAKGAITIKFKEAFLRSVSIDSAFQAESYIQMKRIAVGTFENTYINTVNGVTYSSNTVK", "experiment": "SPR, analyte over ligand immobilized on CM5 chip, 1:1 Langmuir model"}, "[2]": {"biological_target": "T2, FL^AgI/II (S. mutans UA159 Antigen I/II, full length recombinant construct) (Streptococcus mutans UA159, UniProt P23504 39-1562)", "T2 construct": "also called CG14", "T2 sequence (P23504 39-1562)": "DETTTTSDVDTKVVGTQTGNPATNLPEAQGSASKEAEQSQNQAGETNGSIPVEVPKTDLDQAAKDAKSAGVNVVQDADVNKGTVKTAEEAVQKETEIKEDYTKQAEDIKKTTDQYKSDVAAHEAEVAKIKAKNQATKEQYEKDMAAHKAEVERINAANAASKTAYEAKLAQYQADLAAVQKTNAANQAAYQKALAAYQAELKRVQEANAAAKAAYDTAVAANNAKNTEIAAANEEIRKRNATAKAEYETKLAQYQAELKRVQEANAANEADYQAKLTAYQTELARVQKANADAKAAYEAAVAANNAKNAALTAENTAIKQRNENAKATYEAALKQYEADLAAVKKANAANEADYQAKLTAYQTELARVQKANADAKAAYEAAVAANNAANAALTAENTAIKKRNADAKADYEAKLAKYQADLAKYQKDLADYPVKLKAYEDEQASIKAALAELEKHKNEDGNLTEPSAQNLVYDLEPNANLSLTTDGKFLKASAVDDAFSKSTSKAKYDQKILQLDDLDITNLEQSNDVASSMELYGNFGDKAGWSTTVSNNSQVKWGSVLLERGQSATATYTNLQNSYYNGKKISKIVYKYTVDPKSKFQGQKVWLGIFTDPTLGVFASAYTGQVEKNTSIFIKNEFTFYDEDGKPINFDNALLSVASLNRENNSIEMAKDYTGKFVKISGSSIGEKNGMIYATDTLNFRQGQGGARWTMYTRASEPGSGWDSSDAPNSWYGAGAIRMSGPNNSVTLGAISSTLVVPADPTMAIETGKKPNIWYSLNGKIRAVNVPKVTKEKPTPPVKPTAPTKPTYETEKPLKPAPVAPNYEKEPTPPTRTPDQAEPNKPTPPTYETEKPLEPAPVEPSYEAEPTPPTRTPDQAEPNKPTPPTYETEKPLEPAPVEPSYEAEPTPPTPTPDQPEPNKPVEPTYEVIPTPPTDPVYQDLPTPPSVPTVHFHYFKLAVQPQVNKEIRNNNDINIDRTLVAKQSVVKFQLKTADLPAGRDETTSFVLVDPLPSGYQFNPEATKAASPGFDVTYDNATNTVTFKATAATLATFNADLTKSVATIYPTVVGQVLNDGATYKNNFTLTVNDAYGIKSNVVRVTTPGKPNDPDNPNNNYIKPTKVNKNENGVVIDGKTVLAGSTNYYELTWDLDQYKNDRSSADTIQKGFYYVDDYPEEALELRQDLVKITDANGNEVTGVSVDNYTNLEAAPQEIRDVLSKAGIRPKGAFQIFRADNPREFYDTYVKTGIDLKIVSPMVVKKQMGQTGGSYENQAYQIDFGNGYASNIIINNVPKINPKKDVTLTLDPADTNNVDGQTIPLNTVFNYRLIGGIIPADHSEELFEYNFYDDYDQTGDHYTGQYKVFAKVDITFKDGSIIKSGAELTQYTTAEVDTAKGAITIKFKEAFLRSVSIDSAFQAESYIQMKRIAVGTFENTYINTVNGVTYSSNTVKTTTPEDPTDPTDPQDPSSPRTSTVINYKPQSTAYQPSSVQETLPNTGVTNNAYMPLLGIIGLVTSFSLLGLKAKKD", "experiment": "SPR, analyte over ligand immobilized on CM5 chip, 1:1 Langmuir model"}, "[3]": {"biological_target": "T3, FL^SspB (S. gordonii DL1 SspB, residues 39-1433) (Streptococcus gordonii DL1, UniProt P16952 39-1433)", "T3 construct": "range 39-1433", "T3 sequence": "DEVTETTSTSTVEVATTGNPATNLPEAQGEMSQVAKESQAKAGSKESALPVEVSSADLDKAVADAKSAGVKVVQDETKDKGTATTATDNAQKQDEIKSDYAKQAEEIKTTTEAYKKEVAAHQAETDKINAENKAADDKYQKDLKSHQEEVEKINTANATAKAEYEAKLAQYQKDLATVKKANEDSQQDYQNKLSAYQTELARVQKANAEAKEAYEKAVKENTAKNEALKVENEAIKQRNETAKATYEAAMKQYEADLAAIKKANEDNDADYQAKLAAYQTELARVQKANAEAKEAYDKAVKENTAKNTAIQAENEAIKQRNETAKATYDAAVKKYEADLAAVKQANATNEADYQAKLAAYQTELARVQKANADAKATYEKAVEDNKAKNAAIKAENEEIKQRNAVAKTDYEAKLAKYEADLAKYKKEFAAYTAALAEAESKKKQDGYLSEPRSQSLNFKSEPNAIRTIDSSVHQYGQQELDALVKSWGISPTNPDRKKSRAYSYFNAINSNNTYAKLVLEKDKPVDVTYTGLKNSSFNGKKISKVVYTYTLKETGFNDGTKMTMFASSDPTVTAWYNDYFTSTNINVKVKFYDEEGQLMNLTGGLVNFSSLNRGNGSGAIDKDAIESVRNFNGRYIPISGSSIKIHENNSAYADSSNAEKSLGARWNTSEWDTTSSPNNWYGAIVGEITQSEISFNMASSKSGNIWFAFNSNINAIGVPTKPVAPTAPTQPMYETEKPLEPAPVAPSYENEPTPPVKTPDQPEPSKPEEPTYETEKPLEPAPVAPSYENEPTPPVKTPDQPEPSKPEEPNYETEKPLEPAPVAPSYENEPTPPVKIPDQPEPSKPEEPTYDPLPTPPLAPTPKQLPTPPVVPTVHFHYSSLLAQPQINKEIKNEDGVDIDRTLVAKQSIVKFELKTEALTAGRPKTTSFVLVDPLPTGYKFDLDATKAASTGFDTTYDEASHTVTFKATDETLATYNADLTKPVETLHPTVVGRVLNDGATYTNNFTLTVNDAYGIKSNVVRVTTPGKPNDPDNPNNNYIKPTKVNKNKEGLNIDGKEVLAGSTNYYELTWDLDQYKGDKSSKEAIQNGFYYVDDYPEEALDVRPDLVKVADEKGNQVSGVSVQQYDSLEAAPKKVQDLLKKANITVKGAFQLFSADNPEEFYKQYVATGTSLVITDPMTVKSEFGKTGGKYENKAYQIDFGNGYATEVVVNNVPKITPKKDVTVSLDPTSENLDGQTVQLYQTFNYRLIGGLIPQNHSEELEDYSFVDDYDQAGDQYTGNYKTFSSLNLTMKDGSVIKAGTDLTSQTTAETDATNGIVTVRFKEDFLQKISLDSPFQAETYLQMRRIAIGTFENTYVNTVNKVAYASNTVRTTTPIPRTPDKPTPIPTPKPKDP", "experiment": "SPR, analyte over ligand immobilized on CM5 chip, 1:1 Langmuir model"}, "A3VP1^AgI/II": {"biological_target": "T4, A3VP1^AgI/II (Streptococcus mutans UA159, UniProt P23504 386-874)", "T4 construct": "domain: A3VP1; also called A3VP1 of AgI/II", "T4 sequence": "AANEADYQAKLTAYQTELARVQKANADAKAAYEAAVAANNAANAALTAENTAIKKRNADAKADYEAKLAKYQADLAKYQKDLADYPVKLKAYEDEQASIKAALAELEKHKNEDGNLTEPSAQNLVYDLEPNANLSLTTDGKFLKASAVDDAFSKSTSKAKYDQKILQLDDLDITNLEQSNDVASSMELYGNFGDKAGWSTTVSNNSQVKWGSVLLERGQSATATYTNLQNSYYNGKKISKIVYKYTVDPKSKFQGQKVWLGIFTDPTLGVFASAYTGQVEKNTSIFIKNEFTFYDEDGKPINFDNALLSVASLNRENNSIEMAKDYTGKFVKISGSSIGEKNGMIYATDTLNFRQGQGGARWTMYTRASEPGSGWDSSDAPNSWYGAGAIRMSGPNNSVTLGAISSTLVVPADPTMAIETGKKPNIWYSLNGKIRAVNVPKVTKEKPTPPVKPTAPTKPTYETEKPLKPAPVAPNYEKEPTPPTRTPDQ", "experiment": "SPR, analyte over ligand immobilized on CM5 chip, 1:1 Langmuir model"}}}
{"binder": "B1", "values": [{"measurement": "Kd", "setting": "[1]", "value": 6.72, "unit": "nM"}, {"measurement": "Ka", "setting": "C123^AgI/II", "value": "1.15e+07", "unit": "M⁻¹"}, {"measurement": "Kd", "setting": "C123^AgI/II", "value": 87, "unit": "nM"}, {"measurement": "koff", "setting": "C123^AgI/II", "value": 0.000721, "unit": "s⁻¹"}, {"measurement": "kon", "setting": "C123^AgI/II", "value": 8290, "unit": "M⁻¹ s⁻¹"}, {"measurement": "Ka", "setting": "[2]", "value": "1.34e+08", "unit": "M⁻¹"}, {"measurement": "Kd", "setting": "[2]", "value": 7.46, "unit": "nM"}, {"measurement": "koff", "setting": "[2]", "value": 0.000743, "unit": "s⁻¹"}, {"measurement": "kon", "setting": "[2]", "value": 99700, "unit": "M⁻¹ s⁻¹"}, {"measurement": "Ka", "setting": "[3]", "value": "2.38e+07", "unit": "M⁻¹"}, {"measurement": "Kd", "setting": "[3]", "value": 42.1, "unit": "nM"}, {"measurement": "koff", "setting": "[3]", "value": 0.000759, "unit": "s⁻¹"}, {"measurement": "kon", "setting": "[3]", "value": 18200, "unit": "M⁻¹ s⁻¹"}, {"measurement": "Ka", "setting": "A3VP1^AgI/II", "value": "7.98e+06", "unit": "M⁻¹"}, {"measurement": "Kd", "setting": "A3VP1^AgI/II", "value": 125, "unit": "nM"}, {"measurement": "koff", "setting": "A3VP1^AgI/II", "value": 0.00249, "unit": "s⁻¹"}, {"measurement": "kon", "setting": "A3VP1^AgI/II", "value": 19900, "unit": "M⁻¹ s⁻¹"}]}
